The source of these data is the Immune Epitope Database (IEDB).

The target of test [1] is HLA-A*23:01. In words: IEDB peptide-MHC binding, purified MHC/direct/fluorescence; filed as Kd, often an IC50 or EC50 that approximates it; ≥ and ≤ were set here for values at or beyond the usual limits of such assays. The conditions noted are these: source organism: Zaire ebolavirus.
For test [2], the target named is HLA-A*02:19. The description is as above. The settings on record: source organism: Zaire ebolavirus.
The target in test [3] is HLA-A*02:12. Described as above. The conditions noted are these: source organism: Zaire ebolavirus.
The target in test [4] is HLA-B*58:01. Described as above. The settings on record: source organism: Zaire ebolavirus.
Test [5] addresses HLA-A*24:03. Described as above. The conditions noted are these: source organism: Zaire ebolavirus.
For test [6], the target named is HLA-A*02:03. The description is as above. The settings on record: source organism: Zaire ebolavirus.
In test [7] the target is HLA-A*02:16. The description is as above. The conditions noted are these: source organism: Zaire ebolavirus.
The target of test [8] is HLA-A*03:01. The test can be described thus: IEDB peptide-MHC binding, purified MHC/competitive/fluorescence; ≥ and ≤ were set here for values at or beyond the usual limits of such assays. The settings on record: source organism: Zaire ebolavirus.
The target of test [9] is HLA-A*02:01. Described as above. The conditions noted are these: source organism: Zaire ebolavirus.
Test [10] concerns the target HLA-B*15:01. Described as above.
Test [11] addresses HLA-A*24:02. The description is as above. The conditions noted are these: source organism: Zaire ebolavirus.
The target of test [12] is HLA-B*07:02. The description is as above. The settings on record: source organism: Zaire ebolavirus.
The target of test [13] is HLA-A*01:01. Described as above.
Test [14] concerns the target HLA-A*11:01. The test is described as above. The conditions noted are these: source organism: Zaire ebolavirus.
In test [15] the target is HLA-B*46:01. The test can be described thus: IEDB peptide-MHC binding, purified MHC/competitive/fluorescence; filed as Kd, often an IC50 or EC50 that approximates it; ≥ and ≤ were set here for values at or beyond the usual limits of such assays. The settings on record: source organism: Zaire ebolavirus.
Test [16] has as its target HLA-B*27:03. Described as above. The conditions noted are these: source organism: Zaire ebolavirus.
For test [17], the target named is HLA-A*02:01. The description is as above. The conditions noted are these: source organism: Zaire ebolavirus.
Test [18] deals with HLA-A*26:01. The test is described as above. The settings on record: source organism: Zaire ebolavirus.
Test [19] concerns the target HLA-B*35:01. Described as above. The settings on record: source organism: Zaire ebolavirus.
In test [20] the target is HLA-B*39:01. The test is described as above. The settings on record: source organism: Zaire ebolavirus.
The target in test [21] is HLA-B*57:01. The description is as above. The conditions noted are these: source organism: Zaire ebolavirus.
For test [22], the target named is HLA-A*69:01. The description is as above. The settings on record: source organism: Zaire ebolavirus.
For test [23], the target named is HLA-C*15:02. In words: IEDB peptide-MHC binding, purified MHC/direct/fluorescence; filed as Kd, often an IC50 or EC50 that approximates it; ≥ and ≤ were set here for values at or beyond the usual limits of such assays. The settings on record: source organism: Vibrio vulnificus YJ016.
Test [24] addresses HLA-B*15:01. The description is as above. The settings on record: source organism: Vibrio vulnificus CMCP6.
Test [25] concerns the target HLA-B*07:02. The test is described as above. The conditions noted are these: source organism: Vibrio vulnificus.
For test [26], the target named is HLA-C*14:02. The test is described as above. The conditions noted are these: source organism: Vibrio vulnificus YJ016.
The target of test [27] is HLA-B*51:01. The test is described as above. The conditions noted are these: source organism: Vibrio vulnificus.
Test [28] addresses HLA-C*12:03. The test is described as above. The settings on record: source organism: Vibrio vulnificus YJ016.
The target of test [29] is HLA-C*06:02. The test can be described thus: IEDB peptide-MHC binding, purified MHC/competitive/fluorescence; filed as Kd, often an IC50 or EC50 that approximates it; ≥ and ≤ were set here for values at or beyond the usual limits of such assays. The settings on record: source organism: Vibrio vulnificus YJ016.
Test [30] deals with HLA-B*15:42. The test is described as above. The conditions noted are these: source organism: Vibrio vulnificus YJ016.
Test [31] concerns the target HLA-B*45:06. Described as above. The conditions noted are these: source organism: Vibrio vulnificus YJ016.
In test [32] the target is HLA-B*83:01. The description is as above. The conditions noted are these: source organism: Vibrio vulnificus YJ016.
The target of test [33] is HLA-C*08:02. The test can be described thus: IEDB peptide-MHC binding, purified MHC/direct/fluorescence; filed as Kd, often an IC50 or EC50 that approximates it; ≥ and ≤ were set here for values at or beyond the usual limits of such assays.
The target of test [34] is HLA-A*01:01. The description is as above. The conditions noted are these: source organism: Francisella tularensis subsp. holarctica LVS.
Test [35] has as its target HLA-A*80:01. The description is as above. The conditions noted are these: source organism: Francisella tularensis subsp. holarctica LVS.
Test [36] deals with HLA-B*48:01. The description is as above. The settings on record: source organism: Burkholderia mallei.
The mark [37] stands for this setting: source organism: Zaire ebolavirus.
The mark [38] stands for this setting: source organism: Sudan ebolavirus.

One may read the Kd as a measure of binding affinity in units of concentration. Low readings indicate tighter binding, high ones weaker binding. By IC50 is commonly meant the point on the concentration scale where inhibition reaches its midpoint. High values mean lower potency, low ones higher potency.

As for TVAPPAPVY, the Kd in test [1] was at least 20 µM; in test [2], at least 20 µM; in [3], at least 20 µM; in test [4] it was 1.1 µM; in test [5], at least 20 µM; in [6], at least 20 µM. In addition, the Kd in test [7] is at least 20 µM; in test [15], at least 20 µM; in test [16], at least 20 µM; in [17], at least 20 µM; in [18], at least 20 µM; in test [19], 0.0002 µM. Also, the Kd in test [20], in [21] and in test [22] was at least 20 µM throughout. The IC50 in [8] is 6.32 µM; in [9] it was at least 119 µM; in [10] (setting [37]), 8.09 µM; in [11], 5.17 µM; in test [12], at least 138 µM; in test [13] (setting [37]), 18.2 µM. The IC50 in test [14] stood at 0.276 µM.

In the case of YLRKHIRAL, the Kd in test [23] was at least 20 µM; in test [24], 0.024 µM; in test [25], 0.003 µM; in [26], 0.099 µM; in [27], at least 20 µM; in test [28] it was 0.193 µM. In addition, the Kd in [29] is 0.482 µM; in test [30], at least 5 µM; in [31] it was at least 5 µM; in test [32] it was at least 5 µM.

Turning to LSDNLSLVY, the Kd was 0.552 µM in test [33] (source organism: Francisella tularensis subsp. tularensis FSC198), at most 0.001 µM in test [34] and 0.168 µM in [35].

On to FQPQSGNAM, for which the results for the Kd in test [33] (source organism: Burkholderia mallei NCTC 10229) and in test [36] were 0.576 µM and 2.53 µM, respectively.

Consider TSSYYATSY, for which the IC50 in test [10] (setting [38]) was found to be 14.3 µM; in test [13] (setting [38]) it was 2.01 µM.
